From publication PMC5143173 come the findings set out here.

One assay concerns the target AIF H454A (human) (UniProt O95831). Nature of the assay: SAXS.
The target of the next assay is AIF S480A (human) (UniProt O95831). In words: SAXS.

On to “AIF H454A (from UniProt O95831 78-613) (domain or fragment)”, for which the stoichiometry N (in general, the number of molecules, sites or subunits per partner or assembly) with AIF H454A (human) amounted to 2. With “AIF S480A (from UniProt O95831 78-613) (domain or fragment)”, in the assay with AIF S480A (human), the stoichiometry N was 2.
